Measured values from patent publication US11376333B2, “mTG substrates for covalent conjugation of compounds” (COVALAB, priority 2013, dated 2022).

Legend:
[1] = target: T1, human transglutaminase 2 (hTG2) (Homo sapiens, UniProt P21980); experiment: TG2-mediated incorporation of biotin-cadaverine into peptides coupled on Covabtest plate; format: biochemical; conditions: same conditions as for mTG
T1 construct: purchased Covalab, France opr 0027
T1 sequence (P21980 1-687): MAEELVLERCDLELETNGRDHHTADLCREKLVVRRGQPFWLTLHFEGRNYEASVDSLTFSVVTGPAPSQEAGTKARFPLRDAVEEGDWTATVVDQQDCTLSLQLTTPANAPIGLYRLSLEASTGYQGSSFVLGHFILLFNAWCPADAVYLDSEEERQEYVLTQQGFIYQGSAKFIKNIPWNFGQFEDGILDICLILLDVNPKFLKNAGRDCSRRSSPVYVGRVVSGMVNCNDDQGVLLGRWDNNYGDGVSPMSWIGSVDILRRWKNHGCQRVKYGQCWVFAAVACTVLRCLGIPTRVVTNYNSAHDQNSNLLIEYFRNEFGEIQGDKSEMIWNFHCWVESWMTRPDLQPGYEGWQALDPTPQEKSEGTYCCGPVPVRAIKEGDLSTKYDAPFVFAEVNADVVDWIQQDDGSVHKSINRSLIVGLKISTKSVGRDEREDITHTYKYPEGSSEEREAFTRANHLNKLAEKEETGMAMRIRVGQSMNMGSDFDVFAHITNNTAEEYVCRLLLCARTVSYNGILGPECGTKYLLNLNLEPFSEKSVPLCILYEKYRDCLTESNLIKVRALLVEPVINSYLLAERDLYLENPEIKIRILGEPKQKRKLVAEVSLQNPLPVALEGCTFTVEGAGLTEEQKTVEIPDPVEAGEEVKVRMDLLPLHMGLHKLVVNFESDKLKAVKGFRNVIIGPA
Description: The coupling method was previously described by the Applicant (V. Thomas et al, 2004) and also in the corresponding data sheet of CovAbtest-Plate™ which is commercially available from Covalab (Ref #opr0004). Briefly, in separate tubes a solution mixture containing 150 μM of each peptide dissolved in 10 mM phosphate buffer pH5, 5 mM EDAC and 5 mM NHS was incubated for 30 min under gentle shaking. The resulting activated NHS-carboxyl C-terminal moiety of each peptide (15 nmoles) was used to be conjugated in each well of CovAbtest-Plate™ previously deprotonated during 15 min with 150 μl 0.6% sodium bicarbonate per well. The microtiter plate was then incubated during 2 hrs at room temperature and washed extensively with Tris Buffer Saline.
For this experiment we used the same procedures described by V Thomas et all (2004) and also in the Covalab's commercialized kit (opr0033). Briefly the Lyophilized transglutaminase was reconstituted in 40 mM tris buffer pH 8 and 50 μl of each mTG at 200 ng/ml and at 40 ng/ml were added in the wells containing 50 μl of biotin-X-cadaverine. The enzymatic mixture was incubated for 15 min at room temperature under gentle shaking. […] Absorbances at 450 nm were measured using a microplate reader (Multiskan, Labsystems, Helsinki, Finland). […]

[2] = target: T2, microbial transglutaminase (mTG) (Streptomyces mobaraensis, UniProt P81453); experiment: Colorimetric assay: mTG incorporation of biotinylated peptides into immobilized spermine, apparent Km; format: biochemical; conditions: biotinylated peptides, spermine plate
T2 construct: purchased Covalab, France opr 0054
T2 sequence (P81453 77-407): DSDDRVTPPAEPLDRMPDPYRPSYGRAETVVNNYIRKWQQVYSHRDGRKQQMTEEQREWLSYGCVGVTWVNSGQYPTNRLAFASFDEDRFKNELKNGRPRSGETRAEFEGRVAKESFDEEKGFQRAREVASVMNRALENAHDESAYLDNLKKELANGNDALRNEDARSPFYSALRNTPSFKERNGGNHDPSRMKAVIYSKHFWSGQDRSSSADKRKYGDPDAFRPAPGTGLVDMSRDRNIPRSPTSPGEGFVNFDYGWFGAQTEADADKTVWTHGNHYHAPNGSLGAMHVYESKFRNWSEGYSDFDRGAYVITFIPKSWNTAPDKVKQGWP
Excerpt: To produce the Covabtest-spm plate, the procedure previously described in Mily et al (2009) was used.
For the screening of the peptide listed in table 2 (Biotinylated peptides) the inventors used our colorimetric assay to measure transglutaminase 2 (TG2) cross linking activity (Mily et al, 2009) and commercialized under ref opr0033 in which mTG was used instead of TG2 and described in this experience. The principle of the method is based on the transamidation activity of mTG, using covalently coupled spermine to carboxy-substituted polystyrene plates and biotinylated peptides. The assay consists of the incorporation of the glutamine gamma-carboxamide group into the immobilized spermine. The amount of biotinylated peptide bound to the plate, as measured by the activity of streptavidin-peroxidase, is directly proportional to the TG activity. Absorbance was measured at 450 nm using the microplate reader.
In order to compare the affinity of mTG to the preferred substrate, the peptides were used at different concentrations ranging from 160, 80, 40, 20, 10, 5, 2.5 and 0 μM. Then the apparent Km were determined for each peptide and were calculated by Lineweaver-Burk method (1/Absorbance=f(1/[mTG (μM)]).
In this experiment, spermine was conjugated into the plate as described in B-II-4. Biotinylated peptides described in table 3 were incubated with mTG at different concentration (160, 80, 40, 20, 10, 5, 2.5 and 0 μM). […] Even if E seems to abolish the reactivity of the peptides this cannot be due to the negative charge only but also to the nature of the amino acides at the position X+1, X+2 and X+3. […] This is confirmed with LN-11Q8Q10 peptide.

Sequence: HDLMWPDVYSQH (Peptide HH12Q11)
- reactivity as substrate for TG2 incorporation of biot-cad [1]: less reactivity with TG2 than mTG
- reactivity of peptide with mTG (text on Table 3) [2]: highly reactive with mTG
